Measured values published in patent US20100260677A1, “METHODS AND SYSTEMS FOR TREATMENT AND/OR DIAGNOSIS” (Massachusetts Institute of Technology, priority 2009, published 2010).
Positions of bridges follow the written chain, without caps; N, C: chain ends. Non-standard residues stand in square brackets, D forms with d. No end group written: not given here. Hyp = O=C(O)[C@@H]1C[C@@H](O)CN1; cY = chlorotyrosine; Ahx = NCCCCCC(=O)O

Legend:
[1] = test system: ICAM-1; assay: Induction of ICAM-1 expression in HUVECs (immuno-staining); assay type: cell-based, Human; details: 10 ng/ml overnight
Method: This example illustrates the induction of ICAM-1 expression in HUVECs. […] Human Umbilical Vein Endothelial Cells (HUVECs) were cultured on slides coated with gelatin in Medium 200 supplemented with LSGS (Cascade Biologics/Invitrogen). One day after plating, cells were treated with 10 ng/ml TNF-alpha or vehicle alone overnight. The next day cells were fixed and immuno-stained for ICAM-1 expression (antibody from Cell Signaling).

[2] = test system: MDA-MB-435 tumor; assay: Autonomous communication between tTF signaling components and FXIII-NW receivers; assay type: in vivo, mice; details: tTF-RGD+FXIII-NWs plus heparin 800 units/kg i.v. + 500 units/kg i.p.
Method: For autonomously-communicating nanosystems, NIR-fluorophore-labeled peptide-bearing NWs (bearing VT750 fluorophores) were intravenously (2 mg Fe/kg) in PBS to unanaesthetized MDA-MB-435 tumor-bearing nu/nu mice alone or alongside various tTF signaling components (25 micrograms). At 24 hours post-NW injection, the mice were sacrificed and organs were analyzed for NIR receiver fluorescence (LI-COR Odyssey Infrared Imaging System). For intraoperative fluorescent tumor imaging, mice were anaesthesized and tumours were surgically exposed to reveal detailed tumor fluorescence (LI-COR). The levels of NW homing to tumors were plotted by comparing the average NW fluorescence in fully-excised tumours (n=4 mice at each condition). For whole animal organ distribution, tTF-RGD signaling components were administered intraperitoneally (25 micrograms) and FXIII-NWs were administered intravenously (2 mg Fe/kg) to unanaesthetized mice bearing an MDA-MB-435 tumor.
Nu/nu mice bearing a single MDA-MB-435 tumor were intravenously injected with communicating (tTF-RGD+FXIII-NWs) or control (tTF-RGD+control-NWs) systems, FXIII-NWs alone, or NWs targeted by the peptide used to direct signaling component tumor homing (1 mg/kg tTF-RGD). At 24 hours post-injection, tumors were surgically exposed for fluorescent intraoperative imaging of NW homing. […]

[3] = test system: MDA-MB-435 tumors; assay: Nanoworm receiver homing to externally heated tumors; assay type: in vivo, mice; details: 24 hours
Method: (§1) Quantifying NW homing to tumors: Mixtures of NIR-fluorophore-labeled, targeted and control NWs (bearing VT750 and VT680 or VT680 and VT750, respectively) were co-adminstered intravenously in PBS (2 mg Fe/kg) to tumor-bearing nu/nu mice to provide an internal control reference for coagulation-specific NW homing. At 24 hours post-NW injection, mice were sacrificed and organs were analyzed for both NIR-fluorophores (LI-COR Odyssey Infrared Imaging System). For integrated nanoparticle system characterization, mice were additionally imaged under isofluorane anaesthetic before euthanization using a whole animal fluorescence reflectance imaging system (Xenogen, IVIS Imaging System) to visualize the specificity of NW homing to tumors. […] For initial characterization, levels of targeted and control NW homing were plotted by comparing the average NW fluorescence in heated tumors versus unheated tumors (n=4 mice at each temperature). For integrated network evaluation, levels were plotted by comparing the average targeted and untargeted NW fluorescence in irradiated tumors versus un-irradiated tumors (n=4 mice for all conditions).
Having observed that external heating of tumors produced localized coagulation, this response was utilized in an assay to assess the ability of receivers to target tumor coagulation prior to integrating them with signaling components. […]

[4] = test system: MDA-MB-435 tumors; assay: Integrated PEG-NR signaling / FXIII-NW receiver communication, NIR fluorescence imaging; assay type: in vivo, mice; details: PEG-NRs 10 mg Au/kg, 72 h later NWs i.v. + 810 nm ~0.75 W/cm^2 20 min; imaging at 96 hours
Method: as §1
PEG-NRs (or saline) were intravenously-injected into mice bearing bilateral MDA-MB-435 tumors. […]

[5] = test system: MDA-MB-435 tumors; assay: Small molecule vascular disrupting agents: induction of coagulation in tumors (fibrinogen/albumin tropism); assay type: in vivo, mice; details: i.p. DMXAA 20 mg/kg or colchicine 1 mg/kg; 24 hours
Method: Mice bearing MDA-MB-435 tumors were intravenously injected with a mixture of fibrinogen and albumin that had been labeled with unique near-infrared fluorophores (VT750 and VT680, respectively). Immediately after injection, mice were intraperitoneally injected with DMXAA (20 mg/kg) in 200 microliters of sodium bicarbonate buffer or vehicle. At 24 hours after injections, mice were sacrificed and organs removed for fluorescent quantification of protein tropism to tumors (* indicates p=0.014; n=6). […] Mice bearing bilateral MDA-MB-435 tumors were intravenously injected with a mixture of fibrinogen and albumin that had been labeled with unique near-infrared fluorophores (VT750 and VT680, respectively). […] At 24 hours after injections, mice were sacrificed and organs removed for fluorescent quantification of protein tropism to tumors.

[6] = target: T1, coagulation transglutaminase Factor XIII (mouse, UniProt Q8BH61 39-732); assay: cell-based or functional assay
T1 sequence (looked up): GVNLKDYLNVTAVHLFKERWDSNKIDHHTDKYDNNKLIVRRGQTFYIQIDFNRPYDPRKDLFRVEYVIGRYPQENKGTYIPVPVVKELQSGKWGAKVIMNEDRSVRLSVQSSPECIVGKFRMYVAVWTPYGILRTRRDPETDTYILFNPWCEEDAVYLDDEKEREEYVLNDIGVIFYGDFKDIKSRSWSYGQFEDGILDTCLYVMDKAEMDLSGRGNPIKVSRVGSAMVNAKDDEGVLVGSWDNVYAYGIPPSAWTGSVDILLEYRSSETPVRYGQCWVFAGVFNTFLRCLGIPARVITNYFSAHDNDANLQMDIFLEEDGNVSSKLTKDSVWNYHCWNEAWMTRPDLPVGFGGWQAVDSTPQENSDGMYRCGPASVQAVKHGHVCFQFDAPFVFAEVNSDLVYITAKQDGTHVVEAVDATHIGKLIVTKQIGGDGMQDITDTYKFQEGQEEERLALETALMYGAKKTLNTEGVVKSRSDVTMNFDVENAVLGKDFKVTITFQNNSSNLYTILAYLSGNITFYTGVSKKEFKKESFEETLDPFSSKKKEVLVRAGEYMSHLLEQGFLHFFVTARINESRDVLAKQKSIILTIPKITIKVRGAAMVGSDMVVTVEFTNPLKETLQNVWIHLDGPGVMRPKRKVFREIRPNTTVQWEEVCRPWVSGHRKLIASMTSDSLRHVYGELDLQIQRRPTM

[7] = target: fibrin (polymerized fibrin deposited in heated tumors of mice) (mouse, UniProt E9PV24 37-789; Q8K0E8 35-481; Q8VCM7 26-436, limits assumed); assay: cell-based or functional assay
Sequence of fibrin (polymerized fibrin deposited in heated tumors of mice) (E9PV24 37-789 limits assumed, chain 1 of 3): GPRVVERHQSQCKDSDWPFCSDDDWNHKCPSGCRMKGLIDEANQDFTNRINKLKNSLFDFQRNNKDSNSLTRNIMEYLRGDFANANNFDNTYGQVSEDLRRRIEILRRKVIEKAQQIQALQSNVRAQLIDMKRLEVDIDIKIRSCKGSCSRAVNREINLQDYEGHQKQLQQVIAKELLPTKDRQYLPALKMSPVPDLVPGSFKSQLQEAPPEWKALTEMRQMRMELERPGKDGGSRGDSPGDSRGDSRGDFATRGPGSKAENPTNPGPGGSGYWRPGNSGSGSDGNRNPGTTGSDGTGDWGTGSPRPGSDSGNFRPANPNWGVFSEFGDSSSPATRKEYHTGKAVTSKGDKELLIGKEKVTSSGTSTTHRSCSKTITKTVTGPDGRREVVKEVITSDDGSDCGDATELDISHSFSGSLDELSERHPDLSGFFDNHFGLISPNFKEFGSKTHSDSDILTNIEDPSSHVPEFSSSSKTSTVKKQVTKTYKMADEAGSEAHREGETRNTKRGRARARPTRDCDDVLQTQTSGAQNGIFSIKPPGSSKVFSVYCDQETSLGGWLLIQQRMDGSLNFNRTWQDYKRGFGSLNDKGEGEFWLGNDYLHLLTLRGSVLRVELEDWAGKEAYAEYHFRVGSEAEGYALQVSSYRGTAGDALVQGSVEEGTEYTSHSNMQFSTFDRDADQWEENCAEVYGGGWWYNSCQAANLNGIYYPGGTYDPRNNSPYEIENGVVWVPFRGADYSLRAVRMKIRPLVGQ
Sequence of fibrin (polymerized fibrin deposited in heated tumors of mice) (Q8K0E8 35-481 limits assumed, chain 2 of 3): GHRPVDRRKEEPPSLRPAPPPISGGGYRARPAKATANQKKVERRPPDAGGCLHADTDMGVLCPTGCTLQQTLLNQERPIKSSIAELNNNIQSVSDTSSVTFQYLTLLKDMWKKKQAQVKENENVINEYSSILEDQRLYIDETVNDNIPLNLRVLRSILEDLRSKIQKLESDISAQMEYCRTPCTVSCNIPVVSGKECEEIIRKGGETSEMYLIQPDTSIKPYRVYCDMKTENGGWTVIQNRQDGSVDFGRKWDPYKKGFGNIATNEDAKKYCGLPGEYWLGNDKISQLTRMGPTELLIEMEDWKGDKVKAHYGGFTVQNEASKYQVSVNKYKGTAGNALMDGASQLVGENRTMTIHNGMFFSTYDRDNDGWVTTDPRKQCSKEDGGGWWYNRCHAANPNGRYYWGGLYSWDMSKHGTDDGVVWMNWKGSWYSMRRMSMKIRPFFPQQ
Sequence of fibrin (polymerized fibrin deposited in heated tumors of mice) (Q8VCM7 26-436 limits assumed, chain 3 of 3): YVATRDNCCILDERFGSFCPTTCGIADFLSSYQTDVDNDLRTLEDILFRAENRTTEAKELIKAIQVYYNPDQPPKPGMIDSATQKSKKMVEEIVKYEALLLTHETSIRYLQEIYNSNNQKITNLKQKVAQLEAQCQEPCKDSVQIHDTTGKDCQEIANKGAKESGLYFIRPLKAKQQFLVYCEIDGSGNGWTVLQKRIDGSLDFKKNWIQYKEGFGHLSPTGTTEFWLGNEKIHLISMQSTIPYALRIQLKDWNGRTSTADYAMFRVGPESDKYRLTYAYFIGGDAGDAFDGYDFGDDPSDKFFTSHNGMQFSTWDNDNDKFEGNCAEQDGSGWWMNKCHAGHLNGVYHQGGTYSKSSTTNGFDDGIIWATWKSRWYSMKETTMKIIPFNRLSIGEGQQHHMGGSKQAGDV

Molecule: TNF-alpha
- ICAM-1 expression on the cell surface [1]: upregulation of ICAM-1 on the cell surface

Molecule: heparin
- amplified vascular targeting when coagulation inhibitor administered alongside the integrated system [2]: absent

Molecule: FXIII-NWs: magnetofluorescent iron oxide nanoworms derivatized with a peptide substrate for coagulation transglutaminase Factor XIII (SEQ ID NO: 2) (GNQEQVSPLTLLK[Ahx]CK-Fluorescein; not fully specified (residue 15))
- histopathological distribution in heated tumors compared with controls ([3]; heated tumors): marked extravasation and interstitial spreading
- increase in tumor targeting, heated compared to unheated tumors ([3]; one tumor heated at 45° C. in water bath 20 min): nearly an order of magnitude
- increase in accumulation in NR-heated tumors above unirradiated contralateral tumors and tumors on saline-injected mice [4]: over an order of magnitude

Molecule: Cc1ccc2c(=O)c3cccc(CC(=O)O)c3oc2c1C [DMXAA, 5,6-dimethylxanthenone-4-acetic acid]
- induction of coagulation in tumors [5]: specifically induced coagulation in tumors

Molecule: GNQEQVSPLTLLK[Ahx]CK-Fluorescein (also: coupled through the exogenous Cys to nanoworm or liposome carrier)
- accumulation of FXIII-substrate receiving NWs in tumors heated to 45 C against unheated tumors (in vivo, NIR fluorescence at 24 hours) [6]: ~10 fold
- accumulation of FXIII-targeted NWs in nanorod-heated tumors against unirradiated contralateral tumors and tumors on saline-injected mice (in vivo, whole-animal fluorescence) [6]: > 10 fold
- doxorubicin accumulation in tumors heated to 45 C against unheated controls, FXIII-substrate liposomes (in vivo) [6]: > 40 fold
- doxorubicin accumulation in tumors, NR signaling components plus FXIII-LP receivers against the LPs alone (in vivo) [6]: > 40 fold

B1: fibrin-binding peptide Ac-d-d-d-G-Y-e-C-hyP-cY-G-L-C-Y-I-Q-K-Fluorescein (peptide)
peptide: Ac-[dD][dD][dD]GY[dE]C[Hyp][cY]GLCYIQK-Fluorescein
modifications: disulfide 7-12 (inferred); not fully specified; printed as Ac-d-d-d-G-Y-e-C-hyP-cY-G-L-C-Y-I-Q-K-Fluorescein; also: attached to nanoworm via the Lys with NHS-PEO5-NHS linker
- targeting of fibrin-binding receiving NWs to heated tumors against unheated tumors (in vivo, NIR fluorescence) [7]: ~10 fold
